Results from article PMC11952830 (2025).
No end group written: not given here. TMR = tetramethylrhodamine

Target: actin (rabbit muscle) (rabbit, UniProt P68135 1-377)
Test: FP; actin filaments

Kd: 18.9 µM
B1: Cdc42EP3 (1-21), TMR labeled at the N-terminus (domain or fragment)
chain: {TMR}-MPAKTPIYLKAANNKKGKKFK
